Measurements reported in paper PMC8850972, “Unraveling the Glucosylation of Astringency Compounds of Horse Chestnut via Integrative Sensory Evaluation, Flavonoid Metabolism, Differential Transcriptome, and Phylogenetic Analysis” (Frontiers in Plant Science, 2022).

B1: AcUGT26 (Aesculus chinensis) (protein)
chain: MSSSRSQSHHVILFPFMSKGHTIPLLHLAQLLLRRPRVAVTVFTTPANRPFTSNFLRNTAASIIDLPFPENVPEIAPGIESTDKLPSMSLFVPFARATKLMQPDFERAVEAMPRVSFLVSDGFLWWTLESATKFGFPRFVFYGMNNYSGCVCRAVVENRLLYGRKSDDELVTVTGFPWIKVTRNDFEPTFTDPEPKGPMFDLVIDQVIATSNSYGLIVNSFYELESLFVEHKNREAKPKVWCVGPLCLADPLRVQDQLPPHQKPTWIQWLDQKLEQGRSVLYVAFGTQAEISEEQVKEISSGLEESKVNFLWVIRKKESELGDGFEKRVKERGLIVREWVDQREMLLHQSIHGFLSHCGWNSVMESICAGVPILAWPMMAEQPLNARMVVEEIKVGLRVETCNGSVRGFVKKEGLEKMVKELMEGEKGKEVRKKAKEYAEMARKAMDEDNGSSCRTLDMLMAEISNSKSQDKMEV
notes: cloned from mixed leaf, flower and seed cDNA into pMAL-c2x (MBP-fusion vector), expressed in Escherichia coli
B2: AcUGT1 (Aesculus chinensis) (protein)
chain: MQKAELVFIPLPGVSHLISTVEIAKLLVGRDDRLSITVLIIKFPNFDSNVIAAYTRSLDRIKFIDLPNHFSDSDNSRTLFFSIIESQKPHVKEAVTKLTQSESLPAADSPRLAGFVLDMFCTCMIDVANDFGVPSYIFFTSGAAFLGLMFHAQFLHDELGKSTTDFKDSESDAELVVPSLANPVPARVLPSAMLSKEWSMHLNELSRRFRTTKGIMVNTFAELESYAVNSLSDGSKTQIPPLYPVGPILNLNGDNHVPERKAEIMEWLDDQPPSSVVFLCFGSMGSFDGDQLKEIACALEQSGHRFLWSVRQSPPKDKDKDKIVIPNDCENLTDVLPEGFLDRTVGIGKVIGWAPQVAVLGHPAVGGFVSHCGWNSTLESIWFGVPIATWPIYAEQQLNAFEMVRELGLAVEIKMDYRKDFITESVVELVTAEEIERGIRRLMESDNNDIRKKVKEMSEKSRRALMDGGSSFSSLGRFIGDVIDNIS
notes: as for B1

Tests used:
[1] = substrate: O=c1c(O)c(-c2ccc(O)c(O)c2)oc2cc(O)cc(O)c12; assay: UPLC-MS/MS glucosyltransferase kinetics; type: biochemical, Aesculus chinensis; details: UDP-glucose 2 mM, pH 7.0 Tris-HCl, 10 mM DTT, 37 °C
[2] = substrate: O=c1c(O)c(-c2ccc(O)cc2)oc2cc(O)cc(O)c12; assay: UPLC-MS/MS glucosyltransferase kinetics; type: biochemical, Aesculus chinensis; details: UDP-glucose 2 mM, pH 7.0 Tris-HCl, 10 mM DTT, 37 °C

| Protein | Km [1] [µM] | kcat [1] | Km [2] [µM] |
| --- | --- | --- | --- |
| B1 | 2.23 ± 0.06 | 0.65±0.02(10^-3) S^-1 | – |
| B2 | 1.02 ± 0.23 | 5.34±0.01(10^-3) S^-1 | 22.62 |
